From patent publication US20140087995A1 (published 2014)
Each block holds one binder with its values, some of them ahead of it. Numbered stars: 1 amine (or outer) side, 2 acyl side, 3 side chain; on linkers, the order of the positions; unused ones are H or OH. Bridge positions count the residues as written; N and C are the ends. Side chains are listed from the residue outwards. Ends that are not written are not given here. * marks the point of attachment. C20 diacid = O=C(O)CCCCCCCCCCCCCCCCCCC(=O)*; γGlu = O=C(O)[C@H](CCC(=O)[*:2])N[*:1]; AEEA = NCCOCCOCC(=O)O

Columns and labels:
[1] = target: T1, human calcitonin receptor (human, UniProt P30988 25-474); assay: SPA competition on BHK cell membranes, 125I-calcitonin as radioligand (Assay VII)
T1 construct: whole, on cells; Used as cell membranes; also called hCTR; hCT
T1 sequence (looked up): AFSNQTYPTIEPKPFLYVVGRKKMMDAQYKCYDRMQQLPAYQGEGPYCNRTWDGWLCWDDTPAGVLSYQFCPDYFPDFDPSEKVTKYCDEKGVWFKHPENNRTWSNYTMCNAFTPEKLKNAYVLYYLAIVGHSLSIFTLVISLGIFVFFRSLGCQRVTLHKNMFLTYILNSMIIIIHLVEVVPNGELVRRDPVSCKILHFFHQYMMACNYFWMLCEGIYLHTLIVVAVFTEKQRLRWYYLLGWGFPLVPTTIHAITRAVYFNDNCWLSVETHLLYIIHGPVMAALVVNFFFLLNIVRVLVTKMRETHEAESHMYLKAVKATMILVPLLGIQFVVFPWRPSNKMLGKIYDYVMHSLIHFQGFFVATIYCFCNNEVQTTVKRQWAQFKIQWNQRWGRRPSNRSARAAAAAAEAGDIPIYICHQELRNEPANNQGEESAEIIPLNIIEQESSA
Summary of the method: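 BHK hCTR membranes 35 ng/μL + SPA beads 0.05 mg/well; buffer 50 mM Hepes pH 7.4, 1 mM CaCl2, 5 mM MgCl₂, 0.1% OA, 0.02% Tween20. 120 min, 25° C., shaking. Scintillation count; IC50 by one-site binding competition.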

[2] = target: T1, human calcitonin receptor; assay: ratio of hCTR IC50 to hAmylin-R IC50 (reference: human amylin receptor)
Summary of the method: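 Competition binding by SPA uses membrane preparations (35 ng/μL final) in pH 7.4 Hepes buffer with 1 mM CaCl2 and 5 mM MgCl₂. Incubation lasts 120 min at 25° C, and IC₅₀ comes from one-site fitting.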

[3] = target: T2, human amylin receptor (amylin 3(a) receptor: human calcitonin receptor with RAMP-3) (human, UniProt P30988 25-474; O60896 24-148); assay: SPA competition on BHK cell membranes, 125I-rat amylin as radioligand (Assay V)
T2 construct: whole, on cells; Used as cell membranes of the Amylin 3(a)/CRE-luc BHK cells; the species of RAMP-3 is only implied by the name human amylin receptor; also called hAmylin-R; hAmylinR
T2 sequence (looked up) 1: T1 sequence (looked up)
T2 sequence (looked up) 2: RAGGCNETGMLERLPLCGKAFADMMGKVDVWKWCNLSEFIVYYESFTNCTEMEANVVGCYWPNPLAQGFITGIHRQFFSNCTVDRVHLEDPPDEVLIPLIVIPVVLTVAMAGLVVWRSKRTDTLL
Description: The binding assay was performed using scintillation proximity assay (SPA) beads (RPNQ0001) from PerkinElmer and cell membranes from the Amylin 3(a)/CRE-luc cells (as described in Assay (II)) were used. Membranes were prepared in the following way; the cells were rinsed with PBS and incubated with Versene for approximately 5 min before harvesting. The cells were flushed with PBS and the cell-suspension was centrifuged for 5 min at 1000 rpm. Cells were homogenized (ultrathurrax) in a buffer containing 20 mM Na-HEPES and 10 mM EDTA (pH 7.4) and centrifuged at 20.000 rpm for 15 min. The resulting pellet was resuspended, homogenized and centrifuged (20.000 rpm, 15 min) in a buffer containing 20 mM Na-HEPES and 0.1 mM EDTA (pH 7.4, buffer 2). The resulting pellet was resuspended in buffer 2 and protein concentration was measured (BCA protein Assay, Pierce). The homogenate was kept cold during the whole procedure. The membranes were kept at −80° C. until use. The assay was performed in a 384 well Optiplate (PerkinElmer) in a total volume of 40 ul. Membranes were mixed with SPA beads. Final concentration of membranes 35 ng/μL final and SPA beads was 0.05 mg/well. Test-compounds were dissolved in DMSO and further diluted in assay buffer (50 mM Hepes, pH 7.4, 1 mM CaCl2, 5 mM MgCl₂, 0.1% OA and 0.02% Tween20). […] The final mixture was incubated with shaking at 400 rpm for 120 min at 25° C. prior to centrifugation (1500 rpm, 10 min). Samples were analyzed on TopCounter™ (Packard). The IC₅₀ was calculated using (one site binding competition analysis) GraphPad Prism5 as a measure of receptor affinity.

[4] = target: T3, human calcitonin receptor (human, UniProt P30988 25-474); assay: cell-based or functional assay
T3 sequence (looked up): T1 sequence (looked up)

- IC50 [1]: 61.3 nM
- Ratio hCT/hAmylin binding [2]: 63.4
- IC50 [3]: 0.967 nM
B1: N^ε1-[2-[2-[2-[[2-[2-[2-[[(4S)-4-carboxy-4-(19-carboxynonadecanoylamino)butanoyl]amino]ethoxy]ethoxy]acetyl]amino]ethoxy]ethoxy]acetyl]-[Arg17,Pro21,Pro27,Arg34 … (peptide)
peptide: K([AEEA-AEEA-γGlu-C20 diacid])CNTATCATQRLANFLRHSSPNFGAIPSSTNVGRNTY-NH2
modifications: disulfide 2-7; N-terminus assumed
SMILES: CC[C@H](C)[C@H](NC(=O)[C@H](C)NC(=O)CNC(=O)[C@H](Cc1ccccc1)NC(=O)[C@H](CC(N)=O)NC(=O)[C@@H]1CCCN1C(=O)[C@H](CO)NC(=O)[C@H](CO)NC(=O)[C@H](Cc1c[nH]cn1)NC(=O)[C@H](CCCNC(=N)N)NC(=O)[C@H](CC(C)C)NC(=O)[C@H](Cc1ccccc1)NC(=O)[C@H](CC(N)=O)NC(=O)[C@H](C)NC(=O)[C@H](CC(C)C)NC(=O)[C@H](CCCNC(=N)N)NC(=O)[C@H](CCC(N)=O)NC(=O)[C@@H](NC(=O)[C@H](C)NC(=O)[C@@H]1CSSC[C@H](NC(=O)[C@@H](N)CCCCNC(=O)COCCOCCNC(=O)COCCOCCNC(=O)CC[C@H](NC(=O)CCCCCCCCCCCCCCCCCCC(=O)O)C(=O)O)C(=O)N[C@@H](CC(N)=O)C(=O)N[C@@H]([C@@H](C)O)C(=O)N[C@@H](C)C(=O)N[C@@H]([C@@H](C)O)C(=O)N1)[C@@H](C)O)C(=O)N1CCC[C@H]1C(=O)N[C@@H](CO)C(=O)N[C@@H](CO)C(=O)N[C@H](C(=O)N[C@@H](CC(N)=O)C(=O)N[C@H](C(=O)NCC(=O)N[C@@H](CCCNC(=N)N)C(=O)N[C@@H](CC(N)=O)C(=O)N[C@H](C(=O)N[C@@H](Cc1ccc(O)cc1)C(N)=O)[C@@H](C)O)C(C)C)[C@@H](C)O
notes: also called compound 95

- IC50 [1]: 137 nM
- Ratio hCT/hAmylin binding [2]: 146
- IC50 [3]: 0.939 nM
B2: N^ε1-[(4S)-4-carboxy-4-(19-carboxynonadecanoylamino)butanoyl]-[Arg14,Arg17,Pro21,Pro27]-h-amylin (peptide)
peptide: K([γGlu-C20 diacid])CNTATCATQRLARFLRHSSPNFGAIPSSTNVGSNTY-NH2
modifications: disulfide 2-7; N-terminus assumed
SMILES: CC[C@H](C)[C@H](NC(=O)[C@H](C)NC(=O)CNC(=O)[C@H](Cc1ccccc1)NC(=O)[C@H](CC(N)=O)NC(=O)[C@@H]1CCCN1C(=O)[C@H](CO)NC(=O)[C@H](CO)NC(=O)[C@H](Cc1c[nH]cn1)NC(=O)[C@H](CCCNC(=N)N)NC(=O)[C@H](CC(C)C)NC(=O)[C@H](Cc1ccccc1)NC(=O)[C@H](CCCNC(=N)N)NC(=O)[C@H](C)NC(=O)[C@H](CC(C)C)NC(=O)[C@H](CCCNC(=N)N)NC(=O)[C@H](CCC(N)=O)NC(=O)[C@@H](NC(=O)[C@H](C)NC(=O)[C@@H]1CSSC[C@H](NC(=O)[C@@H](N)CCCCNC(=O)CC[C@H](NC(=O)CCCCCCCCCCCCCCCCCCC(=O)O)C(=O)O)C(=O)N[C@@H](CC(N)=O)C(=O)N[C@@H]([C@@H](C)O)C(=O)N[C@@H](C)C(=O)N[C@@H]([C@@H](C)O)C(=O)N1)[C@@H](C)O)C(=O)N1CCC[C@H]1C(=O)N[C@@H](CO)C(=O)N[C@@H](CO)C(=O)N[C@H](C(=O)N[C@@H](CC(N)=O)C(=O)N[C@H](C(=O)NCC(=O)N[C@@H](CO)C(=O)N[C@@H](CC(N)=O)C(=O)N[C@H](C(=O)N[C@@H](Cc1ccc(O)cc1)C(N)=O)[C@@H](C)O)C(C)C)[C@@H](C)O
notes: also called compound 83

- Ratio hCT/hAmylin funct. [4]: 3.8
- hCTR funct. EC50 (pM) [4]: 1100 pM
B3: N^ε1-[(4S)-4-carboxy-4-[[(4S)-4-carboxy-4-(19-carboxynonadecanoylamino)butanoyl]amino]butanoyl]-[Glu14,Arg17,Pro21,Pro27,His34]-h-amylin (peptide)
peptide: K([γGlu-γGlu-C20 diacid])CNTATCATQRLAEFLRHSSPNFGAIPSSTNVGHNTY-NH2
modifications: disulfide 2-7; N-terminus assumed
SMILES: CC[C@H](C)[C@H](NC(=O)[C@H](C)NC(=O)CNC(=O)[C@H](Cc1ccccc1)NC(=O)[C@H](CC(N)=O)NC(=O)[C@@H]1CCCN1C(=O)[C@H](CO)NC(=O)[C@H](CO)NC(=O)[C@H](Cc1c[nH]cn1)NC(=O)[C@H](CCCNC(=N)N)NC(=O)[C@H](CC(C)C)NC(=O)[C@H](Cc1ccccc1)NC(=O)[C@H](CCC(=O)O)NC(=O)[C@H](C)NC(=O)[C@H](CC(C)C)NC(=O)[C@H](CCCNC(=N)N)NC(=O)[C@H](CCC(N)=O)NC(=O)[C@@H](NC(=O)[C@H](C)NC(=O)[C@@H]1CSSC[C@H](NC(=O)[C@@H](N)CCCCNC(=O)CC[C@H](NC(=O)CC[C@H](NC(=O)CCCCCCCCCCCCCCCCCCC(=O)O)C(=O)O)C(=O)O)C(=O)N[C@@H](CC(N)=O)C(=O)N[C@@H]([C@@H](C)O)C(=O)N[C@@H](C)C(=O)N[C@@H]([C@@H](C)O)C(=O)N1)[C@@H](C)O)C(=O)N1CCC[C@H]1C(=O)N[C@@H](CO)C(=O)N[C@@H](CO)C(=O)N[C@H](C(=O)N[C@@H](CC(N)=O)C(=O)N[C@H](C(=O)NCC(=O)N[C@@H](Cc1c[nH]cn1)C(=O)N[C@@H](CC(N)=O)C(=O)N[C@H](C(=O)N[C@@H](Cc1ccc(O)cc1)C(N)=O)[C@@H](C)O)C(C)C)[C@@H](C)O
notes: Synthetic acylated analogue of human amylin; also called compound 87

- Ratio hCT/hAmylin funct. [4]: 5.2
- hCTR funct. EC50 (pM) [4]: 354 pM
B4: N^ε1N^ε1-[(4S)-4-carboxy-4-(19-carboxynonadecanoylamino)butanoyl]-[His14,Arg17,Pro21,Pro27,Pro34]-h-amylin (peptide)
peptide: K([γGlu-C20 diacid])CNTATCATQRLAHFLRHSSPNFGAIPSSTNVGPNTY-NH2
modifications: disulfide 2-7; N-terminus assumed
SMILES: CC[C@H](C)[C@H](NC(=O)[C@H](C)NC(=O)CNC(=O)[C@H](Cc1ccccc1)NC(=O)[C@H](CC(N)=O)NC(=O)[C@@H]1CCCN1C(=O)[C@H](CO)NC(=O)[C@H](CO)NC(=O)[C@H](Cc1c[nH]cn1)NC(=O)[C@H](CCCNC(=N)N)NC(=O)[C@H](CC(C)C)NC(=O)[C@H](Cc1ccccc1)NC(=O)[C@H](Cc1c[nH]cn1)NC(=O)[C@H](C)NC(=O)[C@H](CC(C)C)NC(=O)[C@H](CCCNC(=N)N)NC(=O)[C@H](CCC(N)=O)NC(=O)[C@@H](NC(=O)[C@H](C)NC(=O)[C@@H]1CSSC[C@H](NC(=O)[C@@H](N)CCCCNC(=O)CC[C@H](NC(=O)CCCCCCCCCCCCCCCCCCC(=O)O)C(=O)O)C(=O)N[C@@H](CC(N)=O)C(=O)N[C@@H]([C@@H](C)O)C(=O)N[C@@H](C)C(=O)N[C@@H]([C@@H](C)O)C(=O)N1)[C@@H](C)O)C(=O)N1CCC[C@H]1C(=O)N[C@@H](CO)C(=O)N[C@@H](CO)C(=O)N[C@H](C(=O)N[C@@H](CC(N)=O)C(=O)N[C@H](C(=O)NCC(=O)N1CCC[C@H]1C(=O)N[C@@H](CC(N)=O)C(=O)N[C@H](C(=O)N[C@@H](Cc1ccc(O)cc1)C(N)=O)[C@@H](C)O)C(C)C)[C@@H](C)O
notes: Synthetic acylated analogue of human amylin; also called compound 67
